According to the supplement of paper PMC10065799, “High-throughput profiling of sequence recognition by tyrosine kinases and SH2 domains using bacterial peptide display” (eLife, 2023):

The sequences below were run on c-Src (assay: phosphorylation enrichment, bacterial display (enrichment ratio); higher = better substrate or ligand; peptides without Tyr show the background).
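For SH2 binding enrichment of the phosphorylated peptide, bacterial display in this document: peptide library displayed on the E. coli surface as eCPX fusions, selected cells deep-sequenced, score is each peptide's frequency after selection divided by its frequency in the input.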
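For phosphorylation enrichment, bacterial display in this document: 11-residue human phosphosite peptides and single-mutation variants displayed on the E. coli surface, counted by deep sequencing, each peptide's frequency after selection divided by its frequency in the unselected input library; frequency after pTyr selection over input frequency; kinase dosed for 20-30% of maximal phosphorylation in three min.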

Row | Sequence | phosphorylation enrichment
1 | WPQKLYNNFVN [MYO5C_Y526_L522P] | 0.626
2 | TSSSSYFDEPV [ARFGAP3_Y356] | 0.47
3 | ISKKHYAGLLF [POLD1_Y809_R808H] | 0.436
4 | WEQELYSQLVF [WAS_Y102_YF] | 6.47
5 | GFEVVYMTEPI [HSP90AB1_Y512] | 0.8
6 | IVGRLYRLLTE [SETX_Y1978_L1976R] | 0.331
7 | RTVPLYESPRK [DDB1_Y718] | 3.79
8 | SIKNKYVTALY [KCNH2_Y611_D609N] | 0.461
9 | FEKNVYVDKNL [PTCHD3_Y688] | 0.446
10 | SYVVRYNQPRV [GRIN2D_Y736_M733V] | 0.405
11 | RMDGKYACSYT [FLNB_Y704_T703K] | 0.664
12 | VGTKQYMAPEV [ACVRL1_Y375_R374Q] | 0.598
13 | RFLERDIYNRE [HLA-DPB1_Y57_Y57D] | 1.8
14 | HYGNNYTDVLQ [MACC1_Y803_R804T] | 0.816
15 | KGKLIYLLGDS [NXPE1_Y350] | 0.661
16 | KIEGVYARDET [RPL35A_Y34] | 0.56
17 | NFDLDYDSVQP [MYC_Y16_YF] | 0.814

Row | Sequence | phosphorylation enrichment
18 | IDGLEYLHSPG [STK11_Y166_Q170P] | 0.37
19 | VVQGLYKSMPK [KBTBD2_Y250] | 0.403
20 | NNIDFYKNTTN [FGFR2_Y657_K659N_YF] | 0.369
21 | PAIYTYDEYKK [COL8A2_Y648_T645I] | 9.14
22 | PEVSGYCHFAD [TG_Y234_C237Y_YF] | 0.572
23 | GEHSIYSTVNN [CD55_Y266_C267S] | 7.42
24 | KVGNEYVTKGQ [MYH7_Y410] | 0.339
25 | DTNIAYWLHPR [POMT1_Y581] | 0.717
26 | NACGLYHTMNG [GATA5_Y216_K218T] | 3.06
27 | NQILPYIKELV [PPP2R1B_Y341] | 0.477
28 | HEGKIYEYNQV [ZNF665_Y162] | 4.23
29 | ENFDDYMKEVG [FABP4_Y20] | 0.539
30 | LVKDGYQMAQP [CSF1R_Y873] | 0.396
31 | PEADKYCLTFA [FGG_Y300_R301C_YF] | 0.683
32 | KHMADYPDYKY [SOX11_Y113] | 0.4
33 | ICRWVYPLTPE [EIF2B5_Y319_R315C] | 0.578

These sequences were tested against Grb2 SH2 (UniProt P62993) (assay: SH2 binding enrichment of the phosphorylated peptide, bacterial display (enrichment ratio); higher = better substrate or ligand; peptides without Tyr show the background).
Grb2 SH2, sequence (P62993 whole entry, looked up): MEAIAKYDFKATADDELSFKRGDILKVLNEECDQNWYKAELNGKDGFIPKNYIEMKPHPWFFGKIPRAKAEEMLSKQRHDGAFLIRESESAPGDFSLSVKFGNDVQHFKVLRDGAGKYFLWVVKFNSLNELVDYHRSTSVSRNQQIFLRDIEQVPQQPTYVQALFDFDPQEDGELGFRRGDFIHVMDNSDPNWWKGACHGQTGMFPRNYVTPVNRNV

Row | Sequence | SH2 binding enrichment
34 | WPQKLYNNFVN [MYO5C_Y526_L522P] | 1.11
35 | TSSSSYFDEPV [ARFGAP3_Y356] | 0.762
36 | ISKKHYAGLLF [POLD1_Y809_R808H] | 1.22
37 | WEQELYSQLVF [WAS_Y102_YF] | 0.876
38 | GFEVVYMTEPI [HSP90AB1_Y512] | 0.85
39 | IVGRLYRLLTE [SETX_Y1978_L1976R] | 1.05
40 | RTVPLYESPRK [DDB1_Y718] | 0.898
41 | SIKNKYVTALY [KCNH2_Y611_D609N] | 0.909
42 | FEKNVYVDKNL [PTCHD3_Y688] | 0.962
43 | SYVVRYNQPRV [GRIN2D_Y736_M733V] | 1.05
44 | RMDGKYACSYT [FLNB_Y704_T703K] | 0.997
45 | VGTKQYMAPEV [ACVRL1_Y375_R374Q] | 0.832
46 | RFLERDIYNRE [HLA-DPB1_Y57_Y57D] | 1.08
47 | HYGNNYTDVLQ [MACC1_Y803_R804T] | 0.812
48 | KGKLIYLLGDS [NXPE1_Y350] | 1.2
49 | KIEGVYARDET [RPL35A_Y34] | 0.671
50 | NFDLDYDSVQP [MYC_Y16_YF] | 0.872

Row | Sequence | SH2 binding enrichment
51 | IDGLEYLHSPG [STK11_Y166_Q170P] | 0.819
52 | VVQGLYKSMPK [KBTBD2_Y250] | 0.752
53 | NNIDFYKNTTN [FGFR2_Y657_K659N_YF] | 0.804
54 | PAIYTYDEYKK [COL8A2_Y648_T645I] | 0.778
55 | PEVSGYCHFAD [TG_Y234_C237Y_YF] | 0.883
56 | GEHSIYSTVNN [CD55_Y266_C267S] | 0.651
57 | KVGNEYVTKGQ [MYH7_Y410] | 0.89
58 | DTNIAYWLHPR [POMT1_Y581] | 1.03
59 | NACGLYHTMNG [GATA5_Y216_K218T] | 0.849
60 | NQILPYIKELV [PPP2R1B_Y341] | 1.01
61 | HEGKIYEYNQV [ZNF665_Y162] | 1.18
62 | ENFDDYMKEVG [FABP4_Y20] | 1.04
63 | LVKDGYQMAQP [CSF1R_Y873] | 0.874
64 | PEADKYCLTFA [FGG_Y300_R301C_YF] | 0.757
65 | KHMADYPDYKY [SOX11_Y113] | 0.844
66 | ICRWVYPLTPE [EIF2B5_Y319_R315C] | 0.883
